What was measured:
Conditions in all cases: none (in vitro transcript); 20 mM Tris-HCl pH 8, 50 mM NaCl, 1 mM MgCl2; 5 nM tRNA, 30 min incubation; temperature not stated
[1] = tested on: EPRS linker (whole linker) (human); assay: fluorescence quenching
EPRS linker R2R3 (human) = assay: fluorescence anisotropy
[2] = tested on: EPRS linker R1R2R3 (human); assay: fluorescence anisotropy
EPRS linker R1R2 (human) = assay: fluorescence anisotropy

Substance | Kd [1] [nM] | Kd (EPRS linker R2R3 (human)) [nM] | Kd [2] [nM] | Kd (EPRS linker R1R2 (human)) [nM]
human tRNAPro | 449 | – | – | –
bovine tRNATrp | 511 | – | – | –
human tRNAGlu | 886 | – | – | –
human tRNALys3 | 589 | > 10000 | 43 | 209

Source: article PMC9967848
